Laboratory results taken from publication PMC11324745.

Molecular target: Polθ-hel (DNA polymerase theta helicase domain) (human, UniProt O75417 1-894)
Experiment: EMSA

Sequence of Polθ-hel (DNA polymerase theta helicase domain) (O75417 1-894): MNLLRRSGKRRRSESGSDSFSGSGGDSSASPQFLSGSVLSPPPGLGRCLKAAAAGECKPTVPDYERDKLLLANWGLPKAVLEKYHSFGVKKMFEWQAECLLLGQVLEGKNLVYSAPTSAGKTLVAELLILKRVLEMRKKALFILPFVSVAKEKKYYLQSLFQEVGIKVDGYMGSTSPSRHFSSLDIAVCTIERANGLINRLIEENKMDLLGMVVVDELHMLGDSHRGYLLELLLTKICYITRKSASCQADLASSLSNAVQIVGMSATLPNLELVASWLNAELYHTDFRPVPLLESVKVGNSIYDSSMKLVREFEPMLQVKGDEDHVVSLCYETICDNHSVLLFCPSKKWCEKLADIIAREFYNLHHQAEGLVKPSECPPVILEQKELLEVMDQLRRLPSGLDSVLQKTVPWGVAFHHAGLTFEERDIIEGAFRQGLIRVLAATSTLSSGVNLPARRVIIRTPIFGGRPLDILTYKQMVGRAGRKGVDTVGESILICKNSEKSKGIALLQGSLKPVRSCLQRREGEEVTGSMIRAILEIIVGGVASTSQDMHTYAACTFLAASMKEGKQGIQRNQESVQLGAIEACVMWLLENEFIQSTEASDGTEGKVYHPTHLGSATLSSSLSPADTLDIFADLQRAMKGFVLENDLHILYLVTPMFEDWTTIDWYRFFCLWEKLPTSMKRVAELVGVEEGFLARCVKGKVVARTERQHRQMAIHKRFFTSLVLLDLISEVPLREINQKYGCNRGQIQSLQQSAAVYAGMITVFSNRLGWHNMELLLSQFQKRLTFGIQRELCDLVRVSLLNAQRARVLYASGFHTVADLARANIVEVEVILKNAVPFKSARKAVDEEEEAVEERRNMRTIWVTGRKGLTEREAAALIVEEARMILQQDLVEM

TTTTTTTTTTTTTTTTTTTTTTTTTTTTT (ssDNA) [ssDNA RP316]: binds.
